assay: soluble fraction after stress (log2 fold change); higher = more stays soluble; pooled small domains, quantitative proteomics; conditions: stress: 50 degC
Outline: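 The measure of aggregation propensity here is the base-two logarithm of the fold change in the soluble amount of each protein after stress. A higher value means more of that protein stays in solution. Stress was applied at 50°C to pooled libraries of small protein domains, read out by high-throughput quantitative proteomics.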

Point of comparison: “HMETYNLDVGDSAVLQYQNVSRISVGNPDVLDAIPLDKSQILLTGKATGGAALIVWDSKGMHMEKVMVHPA”, “soluble fraction (log2)” value -0.156. Against it:
- HMSRQREWIYDYIQSHPDRHMSVEEIYEGLKAENREVSVATVYRNLKILQDENRIASLMLESGKQVFDK — lower, -0.371
- HMKVDRLISIVLVLLDKNRISAQELADMFEVSLRTIYRDIDAIELAGIPIRSTSGVGGGFEIMPNY — lower, -0.577
- HMFNKTKVPNFIDMNYYEEIEGNSEYDKFNFADPITKNDDTKAPGTVIDQTPEKGTRIDEEKTVIQLTIA — within 0.2 log units, -0.102
- HMETIVGIDPDSKKKIVLKKGIKGRPDYLSFNKKNYSLPSELKEKNVSLEQALEIINDKKSNKKKIK — higher, 0.334
- HMYEDNERSLVPIVQNFLKEKKILLSNQSINLIVQRSGGDRINLYNELQKIESFSKNQKKIDIGDIIKLTN — within 0.2 log units, -0.286
- HMHQGTIEVGSIVHIEGQKALGTILSLTQREAIVGLGALKTTIPLKRLHLATEAEARRHKKSVTPQEAV — higher, 0.0611
- HMTKTRTEILEYLKQNWSVTVSASDIKKHLEEKEIKANTTTIYRYLDKLLAEHVIIKYADAGSERAVYQYS — lower, -2.31
- HMKKDNLKKIKSIDEDIENELFKLGIYHFEQISIWSSKNAEWIENFLNLPNYVRANQWVEQAKILK — lower, -1.47
- HMHSRTWTSADGVKTFEGELQSYDAASGKVSVILPNHKRITFKQEKLSADDIAWLEKNGNRP — higher, 0.102
- HMAGSGLPVPRFVSLADDRVNARAGPGFRFPINWVYLRKGFPVEVVDEFGPWRRIRDIDGVAAWIHLSMLS — lower, -0.85
- HMLGARIAALRRQAGMNQGELAKKLGISPSTVGMYEQGRREPSAEMLVRLAEAFSVSTDFLLT — within 0.2 log units, -4.95e-05
- HMNTSMIEHMDKSTFIRFVFTNPVTHDQAVAKLMEKHMWFSTEEKAEAEIDKLLNKTNSLIESGGKLTW — within 0.2 log units, 0.0337
- HMQEINLIGVTGNDLERSALVKLLDGEIIKLSVGDNLNGGRVVDISAVTLTYLKSGQSITLKLPK — lower, -1.01
- HMYEIEDIKEKLLDLLANSKTGFSGLEISNRLGINRITVSKYLNIFSAEGLIKQKNIGNVIIWFVEDGIE — within 0.2 log units, -0.203
- HMSNNILEISSNKKNMKIQENKNLVESYYSKTENLYSFKLVFKNKRDLDQFLKEVYEDDSTINYKTSS — lower, -0.412
- HMREYVGLSPFNKEKTPSFYVNDEKGQFFDFSSGKNGDLITFLQETERLTFMEAVERLAAEAGLPMPA — lower, -0.491
- HMQLTPAQHAILAKAIHSSDGKIEWFPDNVKGGARKKVLEGMFNRALITPDGEGWRIAAEGYDALGMPRP — within 0.2 log units, -0.0604
- HMVINVNEIIRRIKELKTFKTDRQVADFLGVSKATVSNWMARNSIDFPLLINKLDGVDLTWLLTGRGTPE — lower, -1.16
- HMRRKDIEFTNTMLEELYRHNSKWYDAVVRAYALEIPQKQIAEEMGIRLEAFQSMLFRAKKWIKTKYEADY — lower, -2.51
- HMQTRIDISDAVLQWVVRKTQFAALPPKAAAHLTKWVRGEKKPTFNQLEEVSKATGIPLGYFFLQQPPHE — lower, -0.776
- HMVTPPMVVVDVQGEVKTPGVYHLPTNSRVNDAIKAAGGPKQSADLSYINQARMVKDGEQIYVEKKL — higher, 0.12
- HMDRYVDEEKRFYWRSGEAYLNFSKYKDRSLAEVATVDPGFLRWMMEADFSPETKQIVERALEGEFPQKK — higher, 0.123
- HMGNTMIVILKHEARQEQIDRLKQFLLGMGLRIDESKGENSTILGLVGDTTRVDADLISSLDAVEAVRRV — within 0.2 log units, -0.0449
- HMVNAVKFAIEKMPYKYSSLLTLKYVMGYSGKEIAEITGLSETNVRQQLLKGRKLLESMLEE — lower, -2.43
- HMSQSDLASAIGARVTIRLREASGGFRDIVGVLQRFGSGYGELINSKGEALTFSESEIAIWREVKA — lower, -0.358
- HMYRLSPSWRIVERDDGFEIYGGDDARFQLDPSPLVSRLAAGDAVTRDGLDPTGAIEFEQLLSAGMIRPEI — within 0.2 log units, -0.124
- HMDSQKKNETLSSTADEIIKNYAGKRDLSEESMEQLEQFQKDMRGADVNIFTAAQIRMLDQIFQENLH — within 0.2 log units, -0.0243
- HMEALDPLTAREQEVLEMILSGKSNREIAAELHITENTVKTHAQSIYSKYDVRGRAKLISLLLKGEA — within 0.2 log units, -0.102
- HMAYQQITIKANVVNVRQGPGLSYDVMSQANKGETMNVISQKNNWYQVRLSGDKIGWVASWLVDNT — lower, -1
- HMSGRIWTDNYGRTIEADVIKVNINRTVLLEFTDKKTKTVSFDTFISKDIQYLEYLLTRRNRGKL — lower, -3.9
- HMEPSAQEIANKLLGHVKSLGLPITGLSISYNSTSDLATVRGQVQSQADREKIILAVGNVDHVAKVDDQLT — within 0.2 log units, -0.0356
- HMLPPLGDQELELLRFITESAPITVREAAESYGKDRGLARTTVLTMMERLRAKGYLTRSESGAANEYSP — within 0.2 log units, -0.155
- HMVTEKPLYRDELMDHDTVWVEPISMDSHLRMELRGWYHVKNRFVENEVGQRFYFDFYDIKWLAFTNGP — lower, -2.08
- HMIDPHGSLTLDLRPRDARVEIIDSNKTYKPGVRLPMGEYAIAVSRRGYISETKRINIEYGDNRERVAL — higher, 0.0829
- HMALEGTLARVSVRIPESGVGEIIFSLGGVRRSEAARSVSGRAIPRGTEVVILSYERGIATVQPYEELLTN — within 0.2 log units, 0.013
- HMAATSTGFPGVEVRGNSIRVFFMYKRDRHAHTLPLEPTRNNIKHADQLRSAALFALRNGTYNEADFFPHS — lower, -1.53
- HMDGVSAEAVKSHIKTLIDGEGAKILSDDTLVDLLNAKGFDIARRTVAKYREAMGIGSSVQRRRQKKMG — higher, 0.178
- HMLNPLLLPFVEAEDFQVKLEILAAMEGKVGEEDLDILYEALDLPKMTGNIEEQIHSIKQYIEMRK — lower, -1.15
- HMPDLSGEEQQIVDILAQRGNLQINTLVVETDIPVHKMNAILFELEMKGVVRVLAGGMYQLL — within 0.2 log units, -0.263
- HMGVGIAEAMKHVADEDYGDLSSEFQRIFSAVDGGSTLGDAVRAQMRATSSAGLRRTLSVLAMSVE — higher, 0.208
- HMKGSYTVKSGDNLWSIARKFYGGSGSTWTKIYSANKSTIESTARRYGRSSSDNGHWIYPGTVLVIP — higher, 0.0541
- HMIIVMASSKKEDVAHVVHKIEELGYKAHVIVGVERTVVAAVGDERGKERLISLEALPHVEKVFPILK — within 0.2 log units, -0.055
- HMDLEGLSNKELVTLRGQIQDDLNKWATEVGIIDPKNRPDDYNRALQSLEDAKRQRSAIDAKL — higher, 0.0869
- HMNNSSIGERLKYQRKIKGYSQEELADRTNVTVRTIQRIEKEEVSPHLNTIKLLAIALDIEVDELVAL — lower, -1.25
- HMNDLVTWDRYKIELGDTLSEIAQKLVTRVDILKTVNQIQGTRIIAGNSLMVPRTTDTNVLTYL — within 0.2 log units, -0.174
- HMLSRKEVFTVSQKDIEKNPIGAADKFFDGHVGIHKLLVVDEEDRLRGLFTLSDIERINDEQ — within 0.2 log units, 0.0269
- HMSSQADEEALFKLLAANPYSDEQLEEIRIAIGSGIAYKDIIRIADIGNTAERMKQLRLEFTKDTAN — within 0.2 log units, -0.0428
- HMSRLGINTTIEDIKMVGKIIMPLLKQGQSVYQILASHPEIPYSEKTLYSYIEDNIFKDAGIDISVFDL — lower, -0.931
- HMIMTGSIQEKNGKYYTVLNIKDKNGKYKKKWQTTGLPVKGNKRKAEQILRRRIAEYEANQL — lower, -0.436
- HMGTSMDPPVIIVSDGKLIQKGLEVSGLKKQWLYDLIDRKHMKISDIFLLTADKTGKYNLIKRS — higher, 0.0904
- HMEMKMGHIISKLRYESGYSQVELAEKIGITKGAVGMYETDKRKPDYDTLIKLADLFNVSTDYLLS — higher, 0.0501
- HMPSTVSVPDVAGSSLSEAKTTIKSSGLKVGTVHKVSSDTVESGYVIKTSPTAGSSKKEGSSIDIYVSKG — higher, 0.432
- HMQAESLTVVRSAELKADRFLDAATLQTLQTGQVVESLRTESGWVQVRIAGQQGWVRAMNVKGA — lower, -0.459
- HMGRTITVGIAEDADIKDIAKMLEEKGLISDYRLFVVQELLSAQHDKIKPGIYDLSTDMKAEEMLEILAG — lower, -0.541
- HMNQNHFLDSVVEFAKDEASRAFFQKAVKKLGEGLVEEAMGEVKMREADGSVNSRAPYFIALLENWMENR — within 0.2 log units, 0.0128
- HMEEIQLILAKNLKSIREKEKLSLEKVSQLTGVSKTMIGQIERGDSSPTLTTIWKIANGLKVSFTSLINNP — lower, -2.01
- HMDDEELDALKGIPANEYTQEQIKQISEVFHTLQKNEVKDWLNSLQLRNIELPFELRNEVFSQ — higher, 0.159
- HMPIRVGDAFESLAGVFPDEYNKALRKSTKKPVFFVPVKVEAGSGALRQKGKITFIVKDGRIDAIQIAL — lower, -1.21
- HMDHKSQLQEWAQSTLGETPRYVTIAETGPDHDKELTVELIIGRKSYSIAKGKSKKQAEQSAARIALGLLM — lower, -0.653
- HMTNNFIVTWRNYNEEVLEIDVNVKKGSMPKYNGKTPEREGYQFVGWDPEITEVTKDITYVAQFM — lower, -0.415
- HMARDDVIRLVQLSLDHLPAKYADALEWKYVEGLSTKEIAARLELGSEAAESLLARARRAFKNDFQEIFES — lower, -1.41
- HMEYTVNHYPEKHRFEVVEDGLTAYVEYRLRGDALDIIHTIVPKNLEGRGIAATLVETAYKYAKEQ — lower, -1.2
- HMDSIKDQIYQILKEDILTGELRSGEQLVEQTIAARFNTSRSPVREAIKQLTGDGLVINITNKGTFVK — higher, 0.168
- HMRTRSDVKRAAIIQAAKDAFQEYGVNATSMDKLAEMASVSKRTVYNHFSAKEELVMHIVKE — higher, 0.166
- HMPELFLFNPDTASAATFQALGFSARQAGVLIHFREALGGRFGSVEQFSKSYVVDSATLERLRPYMVF — lower, -3.63
- HMENRILIPTAENIGERLDRYISSELDAPRSQVQIWIDSGLVAVSGGLKPKNYRLREGDEIEVTIPDPV — within 0.2 log units, 0.0407
- HMDITTIIADVPGPKTQIKVDIKNTSLHIFGGMNFKKEIDIGDNKEIINIKYINGTLTVKLKT — higher, 0.089
- HMKSDELTKRRRLQIIEAAERSFRKRGFHATTLREIAAEFGMSVGHIYNYFSGKDAILEALIHQKIDD — lower, -0.82
- HMSMEQAKAEEIEKLGDNAPERLQAAALFAEKFFPQDVMDAVYKITETADGVRAIEHIMQTVK — lower, -1.28
- HMNPSKEFNMSDLLKAKMVGDVSAAKRREKAGALLHIGYGNAKTFLKKLNHFSISREEWDKVIAAMEEF — lower, -0.743
- HMGGVIEDDRGQWAHPGEVTKINSNNITMKGVDFPVLGISDTGDKKMMQPGKDYKFDGNSVTEYPMA — within 0.2 log units, -0.197
- HMDFSVTIKGTSFPVMVSLKKMKQVRLKVFPSGEIKLSAPVGTPEKWIVEYLNDKMSWIEEKMDLFVQ — lower, -0.787
- HMATGTVKWFNPNKGFGFIQQDDASKDVFVHSNELNGVYINEGDKVEFDVVETEKGLSAQNIKK — within 0.2 log units, -0.0828
- HMSFTDLILKSANAIDEMGGIWENGKQILGEKAIAIHEEIVDNGLNPDKDGFYKLANGQMIQYG — within 0.2 log units, -0.000487

Reference: the domain aggregation screens of Martell et al. (2025)
